Assay results: patent US7238668B1, “Inhibition of lymphocyte adherence with CS-1-peptides and fragments thereof” (Fred Hutchinson Cancer Research Center, priority 1989, dated 2007)
Where two headings read alike, the source gives them in different places. Ends that are not written are not given here.

Experiments:
[1] = target: integrin β1 subunit (human) (UniProt P05556); assay: cell-based or functional assay
[2] = test system: T lymphocytes (Jurkat or Molt 4 cells); assay: T lymphocyte adhesion to plasma fibronectin, tryptic fragments and CS peptides; format: cell-based, human
Protocol: Antibodies that would alter cell adhesion to purified plasma fibronectin, tryptic fragments and CS peptides were identified as previously described (Wayner and Carter, 1987). […] The plates were blocked with PBS supplemented with 10 mg/ml heat denatured BSA (HBSA). T lymphocyte or HT1080 cells were labeled with Na2 ^51CrO4 (50 μlCi/ml for 2–4 hr), washed, and 5×10^4 HT1080 or cultured T cells or […] were incubated with hybridoma culture supernatants (1:2 dilution in PBS supplemented with 1 mg/ml heat denatured BSA) or control myeloma cell culture supernatant for 15 minutes at room temperature. The cells were allowed to adhere to the protein-coated surfaces in the presence of the hybridoma supernatants for 15–30 minutes (HT1080) or 2–4 hours (lymphocytes) at 37° C. Non-adherent cells were removed by washing with PBS, and the adherent cells were dissolved in SDS/NaOH and bound ^51Cr-cpm were quantitated in a gamma counter.
Human plasma fibronectin was a generous gift from Drs. Horowitz and R. Schulman (New York Blood Center, N.Y.). […] Two overlapping peptides spanning the initial 48 residues of the IIICS region of human fibronectin (CS-1 and CS-2) were synthesized and coupled to rabbit IgG as described (Humphries et al., 1986, and Humphries et al., 1987, J. Biol. Chem. 262:6886–6892).

[3] = test system: Jurkat cells; assay: Jurkat cell adhesion to surfaces coated with peptide-rsa conjugates; format: cell-based, human
Protocol: ^51Cr-labeled Jurkat cells ([…]) were incubated on surfaces coated with varying concentrations of peptide-rsa conjugates starting at 50 ug/ml (w/v) fragment or peptide (based on peptide not peptide-conjugate weight). […] (No adhesion=no measurable adhesion above negative controls.)
Adhesion of various hematopoetic cell lines to CS-1 (open bars; FIG. 12) or LDV minimal peptide-coated surfaces (cross-hatched bars; FIG. 12) was tested as follows: Jurkat (T lymphoblastoid), A375 (melanoma), U937 (monocytic), Ramos (B lymphoblastoid), and ST-1 (EBV transformed B lymphoblastoid) cells were allowed to adhere to CS-1-rsa or LDVPST-rsa (5 ug/ml peptide) coated surfaces for 30 min at 37° C. At the end of this time the non-adherent cells were washed off and the adherent cells were solubilized in NaOH/SDS and quantitated in a gamma counter. The results are expressed as bound counts per minute.

[4] = target: T1, integrin receptor α4β1 (human, UniProt P13612 34-1032; P05556 21-798); assay: cell-based or functional assay
T1 sequence (P13612 34-1032, form in doubt, chain 1 of 2): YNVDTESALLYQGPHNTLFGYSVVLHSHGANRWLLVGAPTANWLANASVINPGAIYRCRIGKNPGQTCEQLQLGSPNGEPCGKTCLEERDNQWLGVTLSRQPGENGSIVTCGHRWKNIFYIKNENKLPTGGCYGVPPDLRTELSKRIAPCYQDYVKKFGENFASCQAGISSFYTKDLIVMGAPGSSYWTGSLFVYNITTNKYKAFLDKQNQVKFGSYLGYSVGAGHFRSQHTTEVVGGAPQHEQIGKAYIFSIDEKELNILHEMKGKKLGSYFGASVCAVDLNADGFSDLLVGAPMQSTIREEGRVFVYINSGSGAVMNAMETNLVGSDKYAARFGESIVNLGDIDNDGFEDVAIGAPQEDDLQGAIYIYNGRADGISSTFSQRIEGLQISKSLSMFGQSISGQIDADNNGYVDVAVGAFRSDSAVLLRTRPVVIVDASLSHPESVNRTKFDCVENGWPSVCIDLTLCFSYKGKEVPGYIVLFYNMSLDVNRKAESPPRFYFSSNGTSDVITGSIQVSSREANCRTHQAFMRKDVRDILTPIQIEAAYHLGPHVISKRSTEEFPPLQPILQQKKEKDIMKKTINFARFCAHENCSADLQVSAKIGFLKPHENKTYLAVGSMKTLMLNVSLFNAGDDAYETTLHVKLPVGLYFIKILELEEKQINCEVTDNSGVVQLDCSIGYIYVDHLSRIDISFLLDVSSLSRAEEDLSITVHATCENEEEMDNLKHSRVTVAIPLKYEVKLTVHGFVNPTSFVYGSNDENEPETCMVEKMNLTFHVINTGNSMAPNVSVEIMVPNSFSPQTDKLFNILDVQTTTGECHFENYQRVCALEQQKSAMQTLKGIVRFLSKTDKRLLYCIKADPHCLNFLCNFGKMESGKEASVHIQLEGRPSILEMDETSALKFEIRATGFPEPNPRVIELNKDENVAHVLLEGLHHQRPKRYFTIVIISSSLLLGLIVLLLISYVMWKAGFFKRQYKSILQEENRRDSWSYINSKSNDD
T1 sequence (P05556 21-798, form in doubt, chain 2 of 2): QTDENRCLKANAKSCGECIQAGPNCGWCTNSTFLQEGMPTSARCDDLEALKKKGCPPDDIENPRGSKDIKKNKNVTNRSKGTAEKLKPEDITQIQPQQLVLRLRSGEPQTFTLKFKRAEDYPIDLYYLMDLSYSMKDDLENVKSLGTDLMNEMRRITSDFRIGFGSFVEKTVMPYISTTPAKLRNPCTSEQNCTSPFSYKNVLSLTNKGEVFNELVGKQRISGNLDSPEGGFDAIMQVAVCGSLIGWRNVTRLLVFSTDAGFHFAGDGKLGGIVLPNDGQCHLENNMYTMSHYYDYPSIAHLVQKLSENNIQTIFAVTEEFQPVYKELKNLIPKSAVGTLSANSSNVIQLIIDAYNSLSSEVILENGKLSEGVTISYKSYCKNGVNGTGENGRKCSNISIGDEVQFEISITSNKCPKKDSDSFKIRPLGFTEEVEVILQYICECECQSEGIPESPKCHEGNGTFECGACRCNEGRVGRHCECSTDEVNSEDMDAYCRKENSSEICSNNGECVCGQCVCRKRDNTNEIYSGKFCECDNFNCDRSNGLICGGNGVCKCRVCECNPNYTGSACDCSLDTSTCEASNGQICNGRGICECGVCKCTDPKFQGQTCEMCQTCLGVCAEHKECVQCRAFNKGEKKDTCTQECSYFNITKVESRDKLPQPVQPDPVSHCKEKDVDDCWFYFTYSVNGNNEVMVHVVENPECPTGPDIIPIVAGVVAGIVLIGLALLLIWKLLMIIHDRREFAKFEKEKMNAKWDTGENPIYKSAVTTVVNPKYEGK

[5] = test system: Jurkat cells; assay: Peptide inhibition of Jurkat cell adhesion to plasma fibronectin (50% inhibition point); format: cell-based, human; conditions: read-out: Molar Concentration (mM) required for 50% inhibition of Jurkat cell adhesion to plasma fibronectin; fibronectin 5 ug/ml; 30 min
Protocol: For peptide inhibition studies, ^51Cr-labeled test cells were pre-incubated with CS-1 derived peptides at various concentrations for 15 min at room temperature. The test cells were then allowed to attach to fibronectin-coated surfaces in the presence of exogenous test peptides for 30–60 min. The assay then proceeded as described above.
For these experiments in Table XIII ^51Cr-labeled Jurkat cells (10^5/well) were incubated in the presence of the varying concentrations (starting at 2 mg/ml) of the indicated peptides for 15 min. The Jurkat cells were then allowed to adhere to plasma fibronectin-coated surfaces (5 ug/ml) in the presence of the peptides for 30 min. Adhesion to fibronectin was graphically depicted as cpm bound to the fibronectin surface (Y axis), plotted as a function of molar peptide concentration (X axis).

[6] = test system: LAD (B) lymphocyte adhesion to HUVE monolayers; assay: Endothelial cell adhesion assay, LAD cells on HUVE monolayers; format: cell-based, human; conditions: for Adhesion (cpm) Basal: basal HUVE
Protocol: (§1) HUVEs were incubated with IL-1 β (1 ng/ml) or in some experiments with TNF α (10 ng/ml) for 6–24 hours. At the end of this incubation the HUVE monolayers were washed and used in the adhesion assay.
(§2) Human umbilical vein endothelial cells (HUVEs) were cultured in 48 well plates as described (supra). To measure adherence of lymphocytes to HUVE monolayer cultures, lymphocytes were labeled with Na2 ^51CrO4 (50 μCi/ml) for 2–4 hours), washed, and then 10^5 lymphocytes were incubated with HUVE monolayers in the presence or absence of inhibitory antibodies or CS-1 derived peptides. The lymphocytes were allowed to adhere for 30 minutes at 37°. Non-adherent cells were subsequently removed by washing with PBS, and the adherent cells were dissolved in SDS/NaOH. Bound ^51Cr-cpm were quantitated in a gamma counter. In some experiments, endothelial cells were activated prior to the adhesion assay by incubating with IL-1 β (1 ng/ml) or […] (10 ng/ml) for 6–24 hours in defined CS-100 media (Cell Systems, Seattle, Wash.).

[7] = test system: Ramos (B) lymphocyte adhesion to HUVE monolayers; assay: Endothelial cell adhesion assay, Ramos cells on HUVE monolayers; format: cell-based, human; conditions: for Adhesion (cpm) Basal: basal HUVE
Protocol: as §1, §2

[8] = test system: Jurkat (T) lymphocyte adhesion to HUVE monolayers; assay: Endothelial cell adhesion assay, Jurkat cells on HUVE monolayers; format: cell-based, human; conditions: for Adhesion (cpm) Basal: basal HUVE
Protocol: as §1, §2

[9] = target: T1, integrin receptor α4β1; assay: soluble peptide against 51Cr-Jurkat adhesion to plasma fibronectin (5 ug/ml coat); 50% inhibition point read from plot
Protocol: For these experiments in Table XIII ^51Cr-labeled Jurkat cells (10^5/well) were incubated in the presence of the varying concentrations (starting at 2 mg/ml) of the indicated peptides for 15 min.

[10] = target: T1, integrin receptor α4β1; assay: cell-based or functional assay; remark: listed apart in the source
[11] = target: integrin α5β1 (human, UniProt P08648 42-1049; P05556 21-798); assay: cell-based or functional assay
integrin α5β1, sequence (P08648 42-1049, chain 1 of 2): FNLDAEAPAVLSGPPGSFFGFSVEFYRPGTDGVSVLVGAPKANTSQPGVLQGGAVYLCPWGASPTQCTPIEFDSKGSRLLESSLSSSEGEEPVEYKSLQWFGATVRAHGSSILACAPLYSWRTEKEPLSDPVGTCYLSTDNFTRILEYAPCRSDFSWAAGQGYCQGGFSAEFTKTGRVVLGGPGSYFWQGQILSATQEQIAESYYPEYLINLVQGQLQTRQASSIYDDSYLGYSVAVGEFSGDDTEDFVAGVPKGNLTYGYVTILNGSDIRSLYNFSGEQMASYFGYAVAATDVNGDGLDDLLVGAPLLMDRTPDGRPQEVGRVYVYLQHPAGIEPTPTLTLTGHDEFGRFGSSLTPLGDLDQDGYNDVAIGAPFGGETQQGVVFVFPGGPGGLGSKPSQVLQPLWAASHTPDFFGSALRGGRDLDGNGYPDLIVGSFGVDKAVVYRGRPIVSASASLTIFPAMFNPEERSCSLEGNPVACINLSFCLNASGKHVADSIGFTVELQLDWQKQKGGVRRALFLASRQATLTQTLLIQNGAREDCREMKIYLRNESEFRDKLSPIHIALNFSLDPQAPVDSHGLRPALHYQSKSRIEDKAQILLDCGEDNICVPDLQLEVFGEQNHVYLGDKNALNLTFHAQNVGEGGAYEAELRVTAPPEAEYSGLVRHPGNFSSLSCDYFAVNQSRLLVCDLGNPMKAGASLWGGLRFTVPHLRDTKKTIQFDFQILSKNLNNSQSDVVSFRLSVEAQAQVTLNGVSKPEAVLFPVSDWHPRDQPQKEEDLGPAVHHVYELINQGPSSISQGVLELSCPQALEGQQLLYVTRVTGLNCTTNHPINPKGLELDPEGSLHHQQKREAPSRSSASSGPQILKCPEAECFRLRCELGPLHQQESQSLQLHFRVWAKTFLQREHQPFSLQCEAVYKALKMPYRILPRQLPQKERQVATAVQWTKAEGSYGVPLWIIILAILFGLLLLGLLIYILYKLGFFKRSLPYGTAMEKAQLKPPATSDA
integrin α5β1, sequence (P05556 21-798, chain 2 of 2): as the sequence (P05556 21-798, form in doubt, chain 2 of 2) above

[12] = target: T1, integrin receptor α4β1; assay: cell-based or functional assay; remark: listed apart in the source

integrin β1 subunit (human), sequence (P05556 21-798): as the sequence (P05556 21-798, form in doubt, chain 2 of 2) above

Molecule: monoclonal antibody 8A2
- concentration of 8A2 able to stimulate increased avidity of a low avidity α4β1 receptor complex for fibronectin, CS-1, or LDV minimal peptides [1]: 0.1 µg/mL

Molecule: CS-2 (rabbit IgG conjugate): CS-2 peptide of the IIICS region coupled to rabbit IgG (PSTVQKTPFVTHPGYDTGNGIQLPGT; also: coupled to rabbit IgG, site not given here)
- T lymphocyte attachment to peptide (rabbit IgG conjugate)-coated plastic surfaces [2]: do not attach

Molecule: rsa-A13: A13 peptide conjugated to rabbit serum albumin (DELPQLVTLPHPN; also: conjugated to rabbit serum albumin)
- Molar Concentration (nM) required for 50% adhesion of Jurkat cells ([3]; peptide-rsa conjugate coated surfaces, 50% of total input cpm): No Adhesion

Molecule: LDVPST peptide
- Adhesion (cpm), Jurkat (T) on HUVE, +IL-1β; no peptide 314848 [4]: 326000 cpm
- Adhesion (cpm), Jurkat (T) on HUVE, Basal; no peptide 161092 [4]: 167000 cpm
- Adhesion (cpm), LAD (B) on HUVE, +IL-1β; no peptide 71408 [4]: 92800 cpm
- Adhesion (cpm), LAD (B) on HUVE, Basal; no peptide 44860 [4]: 39700 cpm
- Adhesion (cpm), Ramos (B) on HUVE, +IL-1β; no peptide 12936 [4]: 15100 cpm
- Adhesion (cpm), Ramos (B) on HUVE, Basal; no peptide 2724 [4]: 3530 cpm

Molecule: leu-asp-val (Leu-Asp-Val; not fully specified; printed as leu-asp-val) [LDV]
- IC50 [5]: > 2.7 mM

Molecule: monoclonal antibody P4C10
- Adhesion (cpm), Jurkat (T) on HUVE monolayers, +IL-1β; SP2 control 372159 [1]: 230000 cpm
- Adhesion (cpm), Jurkat (T) on HUVE monolayers, Basal; SP2 control 83924 [1]: 36900 cpm
- Adhesion (cpm), LAD (B) on HUVE monolayers, +IL-1β; SP2 control 104672 [1]: 52600 cpm
- Adhesion (cpm), LAD (B) on HUVE monolayers, Basal; SP2 control 19542 [1]: 6360 cpm
- Adhesion (cpm), Ramos (B) on HUVE monolayers, +IL-1β; SP2 control 12157 [1]: 3150 cpm
- Adhesion (cpm), Ramos (B) on HUVE monolayers, Basal; SP2 control 972 [1]: 604 cpm

Molecule: rsa-LDV: LDV conjugated to rabbit serum albumin (Leu-Asp-Val; also: conjugated to rabbit serum albumin)
- EC50 ([3]; peptide-rsa conjugate coated surfaces, 50% of total input cpm, read-out: Molar Concentration (nM) required for 50% adhesion of Jurkat cells): > 2000 nM

Molecule: DELPQLVTLPHPNLHGPEILDVPST [Peptide 344, synthetic CS-1 peptide of the fibronectin IIICS region]
- Adhesion (cpm) Basal ([6]; peptides, Table X): 17500 cpm
- Adhesion (cpm) Basal ([7]; peptides, Table X): 1660 cpm
- Adhesion (cpm) Basal ([8]; peptides, Table X): 29568 cpm

Molecule: LDVPST [Peptide 351]
- Adhesion (cpm) +IL-1β ([6]; IL-1β activated HUVE, Table XI, no peptide 71408): 92792 cpm
- Adhesion (cpm) Basal ([6]; Table XI, no peptide 44860): 39700 cpm
- Adhesion (cpm) +IL-1β ([7]; IL-1β activated HUVE, Table XI, no peptide 12936): 15092 cpm
- Adhesion (cpm) Basal ([7]; Table XI, no peptide 2724): 3532 cpm
- Adhesion (cpm) +IL-1β ([8]; IL-1β activated HUVE, Table XI, no peptide 314848): 326260 cpm
- Adhesion (cpm) Basal ([8]; Table XI, no peptide 161092): 166948 cpm
- IC50 [5]: > 1.6 mM

Molecule: DELPQLVTLPHPN [Peptide A13, N-terminal peptide of CS-1]
- IC50 [5]: > 1 mM

Molecule: VPST-rsa: VPST conjugated to rabbit serum albumin (also: conjugated to rabbit serum albumin)
- Induction of stable cell adhesion ([3]; FIGS. 13-15, Jurkat, U937 and HUT 78 cells): relatively inactive in inducing stable cell adhesion

Molecule: CS-1 (rabbit IgG conjugate): CS-1 peptide coupled to rabbit IgG (DELPQLVTLPHPNLHGPEILDVPST; also: coupled to rabbit IgG, site not given here)
- T lymphocyte attachment to peptide (rabbit IgG conjugate)-coated plastic surfaces [2]: recognize and attach

B1: EILDV peptide (peptide)
peptide: EILDV
- IC50 [9]: 660 µM

B2: GPEILDVPST peptide (peptide)
peptide: GPEILDVPST
notes: also called peptide 354
- Adhesion (cpm), Jurkat (T) on HUVE, +IL-1β; unrelated peptide 293(A) 129864 [10]: 89700 cpm
- Adhesion (cpm), LAD (B) on HUVE, +IL-1β; unrelated peptide 293A 74096 [10]: 27200 cpm
- Adhesion (cpm), Ramos (B) on HUVE, +IL-1β; unrelated peptide 293A 11132 [10]: 2260 cpm
- IC50 [9]: 450 µM

B3: RGDS peptide (peptide)
peptide: RGDS
- Adhesion (cpm), Jurkat (T) on HUVE, +IL-1β; no peptide 314848 [11]: 358000 cpm
- Adhesion (cpm), Jurkat (T) on HUVE, Basal; no peptide 161092 [11]: 299000 cpm
- Adhesion (cpm), LAD (B) on HUVE, +IL-1β; no peptide 71408 [11]: 102000 cpm
- Adhesion (cpm), LAD (B) on HUVE, Basal; no peptide 44860 [11]: 70700 cpm
- Adhesion (cpm), Ramos (B) on HUVE, +IL-1β; no peptide 12936 [11]: 28100 cpm
- Adhesion (cpm), Ramos (B) on HUVE, Basal; no peptide 2724 [11]: 16900 cpm

B4: B12 peptide (peptide)
peptide: LHGPEILDVPST
notes: also called CS-1-B12
- IC50 [9]: 400 µM

B5: VPST peptide (peptide)
peptide: VPST
- Adhesion (cpm), Jurkat (T) on HUVE, +IL-1β; unrelated peptide 293(A) 129864 [10]: 128000 cpm
- Adhesion (cpm), LAD (B) on HUVE, +IL-1β; unrelated peptide 293A 74096 [10]: 42700 cpm
- Adhesion (cpm), Ramos (B) on HUVE, +IL-1β; unrelated peptide 293A 11132 [10]: 4570 cpm
- Adhesion (cpm), Jurkat (T) on HUVE, +IL-1β; no peptide 314848 [12]: 322000 cpm
- Adhesion (cpm), Jurkat (T) on HUVE, Basal; no peptide 161092 [12]: 204000 cpm
- Adhesion (cpm), LAD (B) on HUVE, +IL-1β; no peptide 71408 [12]: 98900 cpm
- Adhesion (cpm), LAD (B) on HUVE, Basal; no peptide 44860 [12]: 38200 cpm
- Adhesion (cpm), Ramos (B) on HUVE, +IL-1β; no peptide 12936 [12]: 15300 cpm
- Adhesion (cpm), Ramos (B) on HUVE, Basal; no peptide 2724 [12]: 4170 cpm

B6: CS-1 peptide (peptide)
peptide: DELPQLVTLPHPNLHGPEILDVPST
notes: Free peptide; also called peptide 344; synthetic CS-1
- Adhesion (cpm), Jurkat (T) on HUVE, +IL-1β; unrelated peptide 293(A) 129864 [10]: 75800 cpm
- Adhesion (cpm), LAD (B) on HUVE, +IL-1β; unrelated peptide 293A 74096 [10]: 26200 cpm
- Adhesion (cpm), Ramos (B) on HUVE, +IL-1β; unrelated peptide 293A 11132 [10]: 2830 cpm
- Adhesion (cpm), Jurkat (T) on HUVE, +IL-1β; no peptide 314848 [12]: 249000 cpm
- Adhesion (cpm), Jurkat (T) on HUVE, Basal; no peptide 161092 [12]: 82400 cpm
- Adhesion (cpm), LAD (B) on HUVE, +IL-1β; no peptide 71408 [12]: 51600 cpm
- Adhesion (cpm), LAD (B) on HUVE, Basal; no peptide 44860 [12]: 23000 cpm
- Adhesion (cpm), Ramos (B) on HUVE, +IL-1β; no peptide 12936 [12]: 5160 cpm
- Adhesion (cpm), Ramos (B) on HUVE, Basal; no peptide 2724 [12]: 1840 cpm
- IC50 [9]: 180 µM
